Patent US20230213524A1 (published 2023)

B1: huMov19 (M9346A) (antibody, V domains shown)
VH: QVQLVQSGAEVVKPGASVKISCKASGYTFTGYFMNWVKQSPGQSLEWIGRIHPYDGDTFYNQKFQGKATLTVDKSSNTAHMELLSLTSEDFAVYYCTRYDGSRAMDYWGQGTTVTVSS
VL: DIVLTQSPLSLAVSLGQPAIISCKASQSVSFAGTSLMHWYHQKPGQQPRLLIYRASNLEAGVPDRFSGSGSKTDFTLTISPVEAEDAATYYCQQSREYPYTFGGGTKLEIKR
notes: also called IMGN853 antibody; antibody component of IMGN853
B2: muFR1-13 (antibody, mouse IgG2b, kappa, V domains shown)
VH: QVQLKESGPDLVAPSQSLSITCTVSGFSLSRYSVHWIRQPPGKGLEWLGMIWSGGNTDYNSVFKSRLNITKDNSKSQVFLKMNSLQTDDTAIYYCATFDGKVSWFAYWGQGTLVTVSA
VL: SIVMTQTPKFLLVSTGDRFTITCKASQSVSNDVLWYQQKPGQSPKLLIYYAYNRYSGVPDRFTGSGYGTDFTFTITTVQSEDLAVYFCQQDHSSPFTFGSGTKLEIKR
notes: Murine monoclonal purified from hybridoma supernatant; Used biotinylated as the detection antibody in the ELISAs and unlabeled in the cytometry assays; also called muFR1-13b; Biotinylated FR1-13
B3: muFR1-9 (antibody, mouse IgG1, kappa, V domains shown)
VH: QVQLVESGGGLVQPGGSRKLSCAASGFTFSSFGMHWVRQAPEKGLEWVAYISSGSSTFYYADTVKGRFTISRDNPKNTLFLQMTSLRSEDTAMYYCAKELTGTFAYWGQGTLVTVSA
VL: DIVLTQSPATLSVTPGDSVSLSCRASQSINNNLHWYQQKSHESPRLLIKYASQSISGIPSRFSGSGSGTDFTLSINSVETEDFGMYFCQQSNSWPQVTFGAGTKLELKR
notes: Murine monoclonal purified from hybridoma supernatant; Capture antibody of the shed antigen ELISA; also called murine FR1-9

Legend:
FOLR3 = biological target: T1, FOLR3 (UniProt P41439 23-245, limits assumed); assay: commercially available ELISA kit
T1 construct: also called folate receptor 3
T1 sequence (P41439 23-245 limits assumed): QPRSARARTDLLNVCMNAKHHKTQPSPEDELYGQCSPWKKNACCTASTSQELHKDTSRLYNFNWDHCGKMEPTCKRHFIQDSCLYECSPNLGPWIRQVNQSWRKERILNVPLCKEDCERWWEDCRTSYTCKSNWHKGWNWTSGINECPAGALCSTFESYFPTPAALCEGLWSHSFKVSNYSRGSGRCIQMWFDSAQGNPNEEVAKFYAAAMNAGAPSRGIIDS
Excerpt: (§1) It is important that the assay detect only FOLR1, and not FOLR2 or especially FOLR3 (commonly found as a shed protein in human plasma), since Mov19 is specific for only FOLR1. To determine this, the top four clones were screened by commercially available ELISA kits (FIGS. 7A-B).

FOLR2 = biological target: T2, FOLR2 (UniProt P14207 17-230, limits assumed); assay: commercially available ELISA kit
T2 construct: also called folate receptor 2
T2 sequence (P14207 17-230 limits assumed): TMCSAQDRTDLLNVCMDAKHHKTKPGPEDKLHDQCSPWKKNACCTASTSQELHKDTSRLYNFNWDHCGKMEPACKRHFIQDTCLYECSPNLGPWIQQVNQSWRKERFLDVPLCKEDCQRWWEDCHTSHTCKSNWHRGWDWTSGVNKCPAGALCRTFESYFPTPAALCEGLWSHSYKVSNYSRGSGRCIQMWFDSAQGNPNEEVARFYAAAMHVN
Excerpt: as §1

[1] = biological target: human folate receptor 1 (FOLR1) on cells (human) (UniProt P15328); assay: laser scanning cytometry on KB cells pre-treated with M9346A or vehicle, then stained with commercial FRA
human folate receptor 1 (FOLR1) on cells (human), sequence (P15328 25-234 limits assumed): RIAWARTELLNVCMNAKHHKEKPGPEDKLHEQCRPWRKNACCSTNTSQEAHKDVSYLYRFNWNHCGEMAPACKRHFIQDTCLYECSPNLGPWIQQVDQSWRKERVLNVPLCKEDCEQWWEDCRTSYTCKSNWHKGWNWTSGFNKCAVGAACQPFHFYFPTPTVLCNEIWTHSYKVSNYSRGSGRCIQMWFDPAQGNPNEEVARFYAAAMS

[2] = biological target: T3, human folate receptor 1 (FOLR1) on cells (human, UniProt P15328 25-234); assay: flow cytometry on T47D cells and ELISA (binding affinity 'by both methods')
T3 construct: On the cell surface: 300-19 cells transfected with human FOLR1 (NCBI NP_057937), or endogenous on KB, T47D and OVCAR3 cells; also called huFOLR1; folate receptor alpha
T3 sequence (P15328 25-234 limits assumed): as above
Procedure: To assure that materials were continuously performing as expected, all antibodies were screened for binding by both ELISA and flow cytometry methods known in the art. Flow cytometry was performed using FOLR1 expressing human T47D cells cultured using in-vitro cell culture techniques known in the art. The antibodies were bound to these cells and detected indirectly using a goat anti-murine Alexa-fluor 488 detection antibody on a FACScalibur machine (FIGS. 6A-B).

Row | Binder | binding result (FOLR3) | binding result (FOLR2) | drop in FRA signal [1] [%] | Kd [2] [nM]
1 | B1 | no binding | no binding | 66 | 
2 | B2 |  |  |  | 1 to 3
3 | B3 |  |  |  | 2 to 4
